Target: Biotinylated Xenopus laevis XRCC4-Avitag (Xenopus laevis)
Experiment: BLI

“Xenopus laevis XLF^1-226 (C-terminally truncated XLF) (from UniProt A0A1L8ENT6 1-226) (domain or fragment)” gave a Kd of 280 nM.

— paper PMC6128732
